From patent US9176064B2, “Bisubstrate fluorescent probes for protein kinase CK2” (University of Tartu, priority 2012, dated 2015)
Where a SMILES comes first, the peptide text is derived from it. [ ]: non-standard residue; d: D form. The star is where a group is joined. X1 = O=C(CCCCCCCn1cnc2c(Br)c(Br)c(Br)c(Br)c21)*

What was measured:
Test in all cases: Kinase panel residual activity
Format in all cases: biochemical
Conditions in all cases: compound at 1 micromolar
[1] = target: T1, TBK1 (Homo sapiens, UniProt Q9UHD2)
T1 sequence (Q9UHD2 1-729): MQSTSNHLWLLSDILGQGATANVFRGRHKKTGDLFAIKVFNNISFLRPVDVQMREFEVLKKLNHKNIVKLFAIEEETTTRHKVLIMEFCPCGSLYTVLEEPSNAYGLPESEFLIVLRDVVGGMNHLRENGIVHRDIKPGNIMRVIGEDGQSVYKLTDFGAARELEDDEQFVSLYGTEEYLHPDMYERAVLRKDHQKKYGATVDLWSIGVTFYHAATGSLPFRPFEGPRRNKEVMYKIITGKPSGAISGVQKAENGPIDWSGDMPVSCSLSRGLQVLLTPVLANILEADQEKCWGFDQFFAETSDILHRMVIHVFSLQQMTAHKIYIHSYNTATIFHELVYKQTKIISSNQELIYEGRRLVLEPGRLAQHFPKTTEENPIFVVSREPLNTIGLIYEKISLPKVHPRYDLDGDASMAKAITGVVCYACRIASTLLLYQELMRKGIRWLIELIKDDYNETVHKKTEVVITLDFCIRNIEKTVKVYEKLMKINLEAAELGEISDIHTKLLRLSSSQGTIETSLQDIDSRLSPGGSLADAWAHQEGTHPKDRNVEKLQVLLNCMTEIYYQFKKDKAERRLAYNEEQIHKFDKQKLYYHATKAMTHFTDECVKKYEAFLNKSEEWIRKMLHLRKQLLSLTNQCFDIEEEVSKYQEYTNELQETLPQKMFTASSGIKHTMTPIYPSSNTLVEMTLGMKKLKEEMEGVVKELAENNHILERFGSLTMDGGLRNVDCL

[2] = target: T2, EPH-B3 (Homo sapiens, UniProt P54753)
T2 sequence (P54753 34-998): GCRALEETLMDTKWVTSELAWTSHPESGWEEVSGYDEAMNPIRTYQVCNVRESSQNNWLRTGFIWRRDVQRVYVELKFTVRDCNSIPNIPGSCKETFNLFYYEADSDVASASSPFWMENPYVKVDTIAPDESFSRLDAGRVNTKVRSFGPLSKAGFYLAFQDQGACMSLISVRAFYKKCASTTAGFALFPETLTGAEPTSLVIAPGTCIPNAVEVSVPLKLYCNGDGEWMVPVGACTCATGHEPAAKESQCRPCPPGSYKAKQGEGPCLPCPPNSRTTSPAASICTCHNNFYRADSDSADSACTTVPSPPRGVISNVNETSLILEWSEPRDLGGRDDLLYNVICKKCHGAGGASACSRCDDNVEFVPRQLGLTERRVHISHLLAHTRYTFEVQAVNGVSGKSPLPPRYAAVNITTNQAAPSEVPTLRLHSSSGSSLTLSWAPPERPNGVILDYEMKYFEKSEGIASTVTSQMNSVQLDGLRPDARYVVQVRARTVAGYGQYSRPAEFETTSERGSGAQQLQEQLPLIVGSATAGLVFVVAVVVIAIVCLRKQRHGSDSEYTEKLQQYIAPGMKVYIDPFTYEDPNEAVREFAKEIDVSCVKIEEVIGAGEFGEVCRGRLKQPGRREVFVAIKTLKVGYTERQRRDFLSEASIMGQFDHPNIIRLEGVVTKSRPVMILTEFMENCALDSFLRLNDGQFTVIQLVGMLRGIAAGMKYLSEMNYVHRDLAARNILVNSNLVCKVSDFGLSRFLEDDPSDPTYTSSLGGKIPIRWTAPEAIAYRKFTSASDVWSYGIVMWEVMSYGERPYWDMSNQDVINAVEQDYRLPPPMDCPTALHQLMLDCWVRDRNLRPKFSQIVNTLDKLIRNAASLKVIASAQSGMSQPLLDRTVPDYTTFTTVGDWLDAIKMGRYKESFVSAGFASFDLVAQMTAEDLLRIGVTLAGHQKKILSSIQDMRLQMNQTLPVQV

[3] = target: T3, SGK1 (Homo sapiens, UniProt O00141)
T3 sequence (O00141 1-431): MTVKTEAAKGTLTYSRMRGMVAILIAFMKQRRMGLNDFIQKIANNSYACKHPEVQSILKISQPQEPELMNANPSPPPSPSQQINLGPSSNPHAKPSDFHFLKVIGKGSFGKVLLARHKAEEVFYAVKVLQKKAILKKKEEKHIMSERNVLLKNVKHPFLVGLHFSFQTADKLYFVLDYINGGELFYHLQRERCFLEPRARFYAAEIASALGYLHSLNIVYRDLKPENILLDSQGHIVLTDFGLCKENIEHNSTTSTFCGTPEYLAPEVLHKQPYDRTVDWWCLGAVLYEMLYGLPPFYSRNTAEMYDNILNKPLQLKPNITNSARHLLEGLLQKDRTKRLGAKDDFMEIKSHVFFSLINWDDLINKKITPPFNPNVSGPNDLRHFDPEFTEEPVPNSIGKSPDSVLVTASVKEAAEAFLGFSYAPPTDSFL

[4] = target: T4, CHK1 (Homo sapiens, UniProt O14757)
T4 sequence (O14757 1-476): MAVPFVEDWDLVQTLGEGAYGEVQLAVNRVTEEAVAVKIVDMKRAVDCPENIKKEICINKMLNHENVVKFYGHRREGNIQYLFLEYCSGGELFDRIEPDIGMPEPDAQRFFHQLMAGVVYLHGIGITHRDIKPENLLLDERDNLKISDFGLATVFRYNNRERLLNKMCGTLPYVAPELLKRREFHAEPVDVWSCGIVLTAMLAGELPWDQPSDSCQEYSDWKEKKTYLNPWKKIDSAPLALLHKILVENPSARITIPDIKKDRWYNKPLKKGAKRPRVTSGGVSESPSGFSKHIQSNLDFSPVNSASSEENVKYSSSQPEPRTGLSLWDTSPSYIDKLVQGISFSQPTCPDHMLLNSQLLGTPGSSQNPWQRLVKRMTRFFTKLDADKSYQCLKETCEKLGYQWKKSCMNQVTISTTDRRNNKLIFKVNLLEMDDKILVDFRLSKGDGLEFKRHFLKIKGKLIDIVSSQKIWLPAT

Structure (SMILES): NCCCC[C@H](NC(=O)[C@H](CC(=O)O)NC(=O)[C@H](CC(=O)O)NC(=O)[C@H](CC(=O)O)NC(=O)[C@H](CC(=O)O)NC(=O)[C@H](CC(=O)O)NC(=O)[C@@H](CC(=O)O)NC(=O)CCCCCCCn1cnc2c(Br)c(Br)c(Br)c(Br)c21)C(=O)O [TBBI-OcA-(D-Asp)-(L-Asp)5-(L-Lys)-OH] (X1-[dD]DDDDDK-OH)
- remaining activity at 1 µM [1]: 93%
- remaining activity at 1 µM [2]: 98%
- remaining activity at 1 µM [3]: 127%
- remaining activity at 1 µM [4]: 134%
